Experimental data reported in article PMC3828344.

Columns and labels:
[1] = molecular target: T1, murine norovirus particle (capsid of 180 VP1) (Murine norovirus 1 (MNV-1, clone CW-1)) (UniProt B7XA03); assay: filter binding (polycarbonate)
T1 sequence: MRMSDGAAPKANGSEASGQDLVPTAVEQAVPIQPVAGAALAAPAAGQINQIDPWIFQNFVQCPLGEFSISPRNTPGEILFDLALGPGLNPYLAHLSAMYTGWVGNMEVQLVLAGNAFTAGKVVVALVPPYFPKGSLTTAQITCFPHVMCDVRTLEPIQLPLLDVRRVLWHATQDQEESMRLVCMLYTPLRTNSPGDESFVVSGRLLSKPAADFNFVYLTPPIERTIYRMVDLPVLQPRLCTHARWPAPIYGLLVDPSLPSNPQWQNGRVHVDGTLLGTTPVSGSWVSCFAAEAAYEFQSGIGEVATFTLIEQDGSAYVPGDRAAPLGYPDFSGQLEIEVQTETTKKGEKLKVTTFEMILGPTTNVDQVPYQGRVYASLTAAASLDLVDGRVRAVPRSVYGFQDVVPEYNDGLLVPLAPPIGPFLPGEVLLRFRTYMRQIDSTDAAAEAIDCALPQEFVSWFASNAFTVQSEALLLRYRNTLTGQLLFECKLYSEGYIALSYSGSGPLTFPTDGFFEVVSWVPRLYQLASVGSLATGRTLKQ

[2] = molecular target: T1, murine norovirus particle (capsid of 180 VP1) (Murine norovirus 1 (MNV-1, clone CW-1)); assay: electrochemical aptasensor (SWV); conditions: thiol (end not stated in material); GSB: 50 mM NaCl, 20 mM Tris-HCl pH 7.4, 3 mM MgCl2, 5 mM KCl, room temperature (anisotropy ~1 h; filter 24 h); aptasensor: Dulbecco's PBS, 25 C, 1 h

Row | Sequence | K half [1] [pM] | binding signal (% of current decrease (110.6 to 34.6 uA)) [2]
1 | GCTAGCGAATTCCGTACGAAGGGCGAATTCCACATTGGGCTGCAGCCCGGGGGATCC [AG3] | 0.1 | 
2 | GCTAGCGAATTCCGTACGAAGGGCGAATTCCACATTGGGCTGCAGCCCGGGGGATCC [thiolated AG3 (aptasensor)] |  | 100
